Source: patent US20050123911A1, “Method of mass spectrometry” (priority 2001, published 2005)
Several values for one entry are separate records, joined by “and”; a condition that tells them apart may be missing. Equal entries are not always repeated. Gly∗ = not defined here; Ac∗ = not defined here

How the values were obtained:
Trypsin = molecular target: T1, Trypsin (Bos taurus, UniProt P00760); assay: Incubation of single DiMaS peptides with trypsin, LC-MS analysis; format: biochemical; details: for Cleaved sequence following incubation with trypsin (FIG. 13): mass spectrum; for Cleavage site on incubation with Trypsin / Cleaved fragment identified after incubation with Trypsin (Table 1): room temperature, 9 h; for Cleavage site on incubation with Trypsin: aliquot every 2 h, LC-MS; for Cleaved fragment identified after incubation with Trypsin (Table 1): HPLC/MS
T1 construct: purchased Sigma T1426
T1 sequence (P00760 24-246): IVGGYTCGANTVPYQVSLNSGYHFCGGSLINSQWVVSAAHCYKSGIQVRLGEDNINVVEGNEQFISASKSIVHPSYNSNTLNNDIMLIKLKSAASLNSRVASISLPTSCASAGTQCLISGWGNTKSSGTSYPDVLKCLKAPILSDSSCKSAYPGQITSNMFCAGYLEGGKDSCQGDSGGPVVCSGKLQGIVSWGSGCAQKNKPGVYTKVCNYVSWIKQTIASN
Protocol: (§1) The peptide (10 μl of 1 mM in Acetonitrile) was treated with a solution of buffer (50 mM HEPES, 150 mM NaCl and 1 μM Zn^2+, 35 μl), and finally Trypsin was added (5 μl, 2.5 μM). The reaction was allowed to take place at room temperature for 9 h and an aliquot of solution was removed for LC-MS analysis.
Peptides 4 and 10 were incubated with trypsin as described above and then analysed by HPLC/MS to give masses according to Table 1.
Compounds 7(2) and 7(13) (10 μl in Acetonitrile) were treated with a solution of buffer (50 mM HEPES, 150 mM NaCl and 1 μM Zn^2+, 35 μl), and finally Trypsin was added (5 μl, 2.5 μM). The reaction was allowed to take place at room temperature for 9 h and an aliquot of solution was removed for LC-MS analysis every 2 h.

[1] = molecular target: T2, neutral endopeptidase (NEP) (Homo sapiens, UniProt P08473); assay: Incubation of DiMaS peptides with NEP, LC-MS analysis; format: biochemical; details: room temperature, 9 h, HPLC/MS
T2 construct: purchased BioMep
Protocol: as §1, with “neutral endopeptidase (NEP)” for “Trypsin”
Peptides 4, 6 and 10 were incubated with NEP as described above and then analysed by HPLC/MS to give masses according to Table 1.

T2 sequence (P08473 whole entry, species assumed): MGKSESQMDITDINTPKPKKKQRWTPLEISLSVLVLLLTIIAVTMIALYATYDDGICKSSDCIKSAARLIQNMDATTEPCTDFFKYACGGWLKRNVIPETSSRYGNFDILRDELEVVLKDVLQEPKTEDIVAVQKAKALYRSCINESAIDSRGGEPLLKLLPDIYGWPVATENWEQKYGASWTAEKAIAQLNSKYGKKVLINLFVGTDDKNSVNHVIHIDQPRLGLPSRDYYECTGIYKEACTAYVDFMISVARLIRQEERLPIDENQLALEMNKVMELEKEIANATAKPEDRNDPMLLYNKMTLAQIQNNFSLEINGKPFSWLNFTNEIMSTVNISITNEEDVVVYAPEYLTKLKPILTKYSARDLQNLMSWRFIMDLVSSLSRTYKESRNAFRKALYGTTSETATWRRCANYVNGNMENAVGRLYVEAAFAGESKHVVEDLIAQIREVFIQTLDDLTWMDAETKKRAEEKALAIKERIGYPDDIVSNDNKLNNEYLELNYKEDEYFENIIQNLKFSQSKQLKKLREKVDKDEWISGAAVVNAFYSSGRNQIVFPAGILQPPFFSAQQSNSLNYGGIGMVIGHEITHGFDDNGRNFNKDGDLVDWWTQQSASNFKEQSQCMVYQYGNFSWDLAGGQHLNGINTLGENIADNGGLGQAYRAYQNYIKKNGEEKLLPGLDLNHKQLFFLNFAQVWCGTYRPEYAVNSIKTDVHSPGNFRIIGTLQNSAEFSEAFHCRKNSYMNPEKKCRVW

Row | Substance | Cleaved sequence following incubation with trypsin (FIG. 13) (Trypsin) | Cleavage site on incubation with Trypsin (Trypsin) | Cleaved fragment identified after incubation with Trypsin (Table 1) (Trypsin) | Cleaved fragment identified after incubation with NEP (Table 1) [1]
1 | Ac-Gly* Ala Ala Phe Lys Arg Ala Gly Ala Ala Lys(Ac*)-NH2 ({Ac-Gly∗}-AAFKRAGAAK(Ac∗)-NH2; reading uncertain; also: isotope labels: Gly* with D2 or H2, Ac* with D3 or H3, printed as Ac-Gly* Ala Ala Phe Lys Arg Ala Gly Ala Ala Lys(Ac*)-NH2) [7(17)] | Ac-Gly-Ala-Ala-Phe-Lys-Arg-OH | – | – | –
2 | Ac-Gly* Ala Gly Arg Ala Asn Ile Asp Phe Ala Lys(Ac*)-NH2 ({Ac-Gly∗}-AGRANIDFAK(Ac∗)-NH2; reading uncertain; also: isotope labels: Gly* with D2 or H2, Ac* with D3 or H3, printed as Ac-Gly* Ala Gly Arg Ala Asn Ile Asp Phe Ala Lys(Ac*)-NH2) [7(2)] | H2N-Ala-Asn-Ile-Asp-Phe-Ala-Lys(ac)-NH2 | cleavage after the arginine residue | – | –
3 | Ac-Gly* Ala Phe Leu Ala Arg Asn Ile Asp Leu Lys(Ac*)-NH2 ({Ac-Gly∗}-AFLARNIDLK(Ac∗)-NH2; reading uncertain; also: isotope labels: Gly* with D2 or H2, Ac* with D3 or H3, printed as Ac-Gly* Ala Phe Leu Ala Arg Asn Ile Asp Leu Lys(Ac*)-NH2) [7(13)] | – | cleavage after the arginine residue | – | –
4 | AcGly-Pro-Arg-Ala-Ala-Ala-Gly-NH2 (Ac-GPRAAAG-NH2; also: partly isotope-labelled (D in acetyl and a Gly), extent not given here) [Peptide 4] | – | – | 371, 374: AcGlyProArgOH and H2NalaAlaAlaGlyNH2 | AcGlyProArgAlaOH and 239, 241: H2NAlaAlaGlyNH2
5 | AcHis-His-Gln-Lys-Leu-Val-Phe-Phe-Ala-Gly-NH2 (Ac-HHQKLVFFAG-NH2; also: partly isotope-labelled (D in acetyl and a Gly), extent not given here) [Peptide 10] | – | – | 591, 594 AcHisHisGlnLysOH and H2NleuValPhePheAlaGlyNH2 | AcHisHisGlnLysLeuOH and 315, 317: NH2PheAlaGlyNH2
6 | AcSer-Glu-Val-Asn-Leu-Asp-Ala-Glu-Phe-Gly-NH2 (Ac-SEVNLDAEFG-NH2; also: partly isotope-labelled (D in acetyl and a Gly), extent not given here) [Peptide 6] | – | – | – | H2NleuAspAlaGluPheGlyNH2
